Values of other authors as cited in US10562936B2, “Ligands for integrin αvβ6, synthesis and uses thereof” (Technische Universitat Munchen, priority 2015, dated 2020).
Square brackets hold non-standard residues; d marks the D form. Abu = CC[C@H](N)C(=O)O

Target: αvβ6 (Homo sapiens, UniProt P06756+P18564)
Conditions: from WO 01/05810; cited from earlier work

αvβ6, sequence (P06756 31-1048): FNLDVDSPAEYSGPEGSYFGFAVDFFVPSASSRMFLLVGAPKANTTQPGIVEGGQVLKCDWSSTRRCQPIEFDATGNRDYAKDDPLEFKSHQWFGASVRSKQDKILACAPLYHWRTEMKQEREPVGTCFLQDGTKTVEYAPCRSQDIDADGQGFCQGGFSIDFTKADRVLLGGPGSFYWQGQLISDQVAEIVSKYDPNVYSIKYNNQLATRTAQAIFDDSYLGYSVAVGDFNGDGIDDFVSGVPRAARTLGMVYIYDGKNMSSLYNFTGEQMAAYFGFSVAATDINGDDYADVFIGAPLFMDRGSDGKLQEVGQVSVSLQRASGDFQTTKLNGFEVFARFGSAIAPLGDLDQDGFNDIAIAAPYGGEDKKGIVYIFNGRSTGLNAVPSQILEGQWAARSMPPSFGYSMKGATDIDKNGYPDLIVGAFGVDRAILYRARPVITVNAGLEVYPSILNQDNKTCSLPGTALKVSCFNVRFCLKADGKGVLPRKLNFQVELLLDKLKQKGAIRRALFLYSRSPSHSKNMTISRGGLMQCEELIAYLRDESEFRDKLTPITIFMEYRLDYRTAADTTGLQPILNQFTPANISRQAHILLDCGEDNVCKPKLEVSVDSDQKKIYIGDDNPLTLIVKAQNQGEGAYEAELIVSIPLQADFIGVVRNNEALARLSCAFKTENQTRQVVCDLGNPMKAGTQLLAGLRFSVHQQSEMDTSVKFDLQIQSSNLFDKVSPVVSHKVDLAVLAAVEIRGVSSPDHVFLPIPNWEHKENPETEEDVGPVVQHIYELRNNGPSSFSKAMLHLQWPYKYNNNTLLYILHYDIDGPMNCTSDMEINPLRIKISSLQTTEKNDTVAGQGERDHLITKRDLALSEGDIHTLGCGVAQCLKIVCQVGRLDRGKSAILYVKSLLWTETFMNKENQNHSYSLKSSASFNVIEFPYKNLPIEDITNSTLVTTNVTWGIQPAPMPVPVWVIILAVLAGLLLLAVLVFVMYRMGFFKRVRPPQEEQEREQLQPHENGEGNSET
αvβ6, sequence (P18564 22-788): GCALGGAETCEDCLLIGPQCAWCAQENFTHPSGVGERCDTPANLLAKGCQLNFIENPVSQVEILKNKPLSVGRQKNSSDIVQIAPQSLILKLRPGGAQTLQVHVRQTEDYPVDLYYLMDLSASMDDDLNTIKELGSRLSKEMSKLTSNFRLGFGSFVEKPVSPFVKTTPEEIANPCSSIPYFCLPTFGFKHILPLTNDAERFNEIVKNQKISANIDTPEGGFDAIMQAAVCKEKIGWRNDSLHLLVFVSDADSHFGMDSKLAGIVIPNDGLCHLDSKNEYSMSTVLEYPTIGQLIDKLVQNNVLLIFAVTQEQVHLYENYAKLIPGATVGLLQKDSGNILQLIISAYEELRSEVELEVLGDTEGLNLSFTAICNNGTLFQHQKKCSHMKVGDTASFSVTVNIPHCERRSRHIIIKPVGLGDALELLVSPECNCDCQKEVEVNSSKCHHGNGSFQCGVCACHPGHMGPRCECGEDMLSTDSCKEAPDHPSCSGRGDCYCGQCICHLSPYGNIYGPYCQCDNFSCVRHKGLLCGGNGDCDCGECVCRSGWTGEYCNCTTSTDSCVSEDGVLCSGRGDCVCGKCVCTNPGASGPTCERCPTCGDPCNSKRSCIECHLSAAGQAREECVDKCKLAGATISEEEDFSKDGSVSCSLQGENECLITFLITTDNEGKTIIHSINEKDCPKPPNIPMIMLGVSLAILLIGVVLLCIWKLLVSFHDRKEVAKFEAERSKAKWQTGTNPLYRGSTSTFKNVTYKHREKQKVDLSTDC

cyclo(RTDLdALR-Abu-Abu) (cyclo(RTDL[dD]ALR[Abu][Abu]); SMILES CC[C@@H]1NC(=O)[C@H](CCCNC(=N)N)NC(=O)[C@H](CC(C)C)NC(=O)[C@H](C)NC(=O)[C@@H](CC(=O)O)NC(=O)[C@H](CC(C)C)NC(=O)[C@H](CC(=O)O)NC(=O)[C@H]([C@@H](C)O)NC(=O)[C@H](CCCNC(=N)N)NC(=O)[C@H](CC)NC1=O)
IC50: ~1 nM
